Data on one molecule can be found in US20180215825A1 (BEIGENE, published 2018).

The target in test [1] is T1, human PD-L1, full length, expressed on cells (human, UniProt Q9NZQ7 19-290).
T1 construct: also called HEK293/PD-L1 cells; HEK293/OS8/PD-L1 cells
In words: FACS competition with biotin-CD80/Fc on HEK293/PD-L1 cells.

The target in test [2] is T1, human PD-L1, full length, expressed on …. Description: FACS on HEK293/PD-L1 cells. As for the experimental part: (§1) Briefly, 50-200 nanograms of PD-L1/His were diluted in 50 microliters of PBS and coated in each well of 96-well ELISA plates (JinCanHua, Shenzhen, China). After blocking with 3% bovine serum albumin in TBST (20 mM Tris, 150 mM NaCl, 0.05% Tween20, pH7.5) and incubating with culture supernatants of hybridoma clones, the HRP-conjugated horse anti-mouse IgG antibody (Cat. No. 7076S, Cell Signaling Technology) and tetramethylbenzidine (TMB) (Cat. No. PA107-01, TianGen, Beijing, China) were used to detect binding signals by a plate reader (PHREAstar, BMG Labtech, Germany) as light absorbance at 450 nm. The ELISA-positive clones were further verified by fluorescence-activated cell sorting (FACS). PD-L1 expression cells, HEK293/PD-L1 (10⁵ cells/well), were incubated with supernatants from hybridoma clones in V-bottom 96-well plates (Cat. No. 3897, Corning). The cell surface bound PD-L1 antibodies were detected with Dylight 649-conjugated goat anti-mouse IgG antibody (Cat. No. 405312, Biolegend, San Diego, Calif., USA) and cell fluorescence was monitored in a Guava EasyCyte 8HT flow cytometer (Millipore, USA).
(§2) The binding activities of the purified monoclonal antibodies were evaluated in ELISA and FACS assays as described in previous sections. The dose-dependent binding curves in ELISA and FACS were used to compare mAb potency.

The target is the same in test [3]. Description: cell-based or functional assay.
For the next test, the target named is T2, human PD-L1-ECD/His (human, UniProt Q9NZQ7 19-238).
T2 construct: Expressed in 293-F cells; also called PD-L1/His; human PD-L1/His
T2 sequence (Q9NZQ7 19-238): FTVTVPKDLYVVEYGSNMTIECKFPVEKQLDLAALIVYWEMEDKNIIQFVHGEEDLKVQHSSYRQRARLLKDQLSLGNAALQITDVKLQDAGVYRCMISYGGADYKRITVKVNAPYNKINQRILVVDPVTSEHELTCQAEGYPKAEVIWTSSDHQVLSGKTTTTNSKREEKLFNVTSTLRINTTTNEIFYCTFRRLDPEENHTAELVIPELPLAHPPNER
Description: ELISA on coated PD-L1/His. As for the experimental part: as §1, §2
A general note: ELISA stands for enzyme-linked immunosorbent assay.

Test [4] concerns the target T1, human PD-L1, full length, expressed on …. In words: FACS competition with biotin-PD-1/Fc on HEK293/PD-L1 cells. The source says: Using this method, we evaluated functional strength of anti-PD-L1 mAbs.
For test [5] the target is unchanged. Description: cell-based or functional assay. This is another data set of the same source.

T1 sequence (Q9NZQ7 19-290 limits assumed): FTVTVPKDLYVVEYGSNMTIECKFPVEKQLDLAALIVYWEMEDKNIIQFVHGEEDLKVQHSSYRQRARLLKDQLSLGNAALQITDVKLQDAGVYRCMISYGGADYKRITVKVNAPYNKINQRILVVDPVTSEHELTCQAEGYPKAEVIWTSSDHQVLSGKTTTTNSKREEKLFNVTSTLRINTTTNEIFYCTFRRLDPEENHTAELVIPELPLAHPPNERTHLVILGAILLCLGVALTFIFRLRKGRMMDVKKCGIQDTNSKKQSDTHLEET

B1: Murine mAb333 (antibody, V domains shown)
VH: QVQLKESGPGLVAPSQSLSITCTVSGFSLTSYGVHWVRQPPGKGLEWLGVIWAGGSTNYNSALMSRLSISKDNSKSQVVLKMNSLQTDDTAMYYCAKPYGNSAMDYWGQGTSVTVSS
VL: DILMTQSHKFMSTSVGDTVSITCKASQDVGIVVAWYQQKPGQSPKLLIYWASIRHTGVPDRFTGSGSGTDFTLTISNVQSEDLADYFCQQYSNYPLYTFGGGTKLEIK
notes: Murine hybridoma mAb; also called mu333; Mu333
By IC50 is commonly meant the concentration that inhibits the measured activity by half. Lower therefore signals greater potency in that assay. Broadly, the EC50 is the concentration giving half of the maximal effect. As for B1, the IC50 in test [1] was determined as 0.052 µg/mL; in test [4], 0.463 µg/mL. Besides, the EC50 in test [2] amounted to 0.099 µg/mL; with human PD-L1-ECD/His, 0.036 µg/mL. In test [3], the “Inhibition of IL-2 secretion in HuT78/P3Z cells co-cultured with HEK293/PD-L1 cells: IC50” value came to 0.021 µg/mL. Also, the “IL-2 release in HuT78/PD-1 cells co-cultured with HEK293/OS8/PD-L1 cells: EC50” value in test [5] came out at 0.092 µg/mL.
